Laboratory results as given in publication PMC10907714.

Molecular target: human EGFR-WT (human) (UniProt P00533)

“human recombinant Epiregulin (from UniProt O14944 63-108) (ligand)” gave a potency of hEpiregulin against hEGF for recruitment of the seven SH2 biosensors to the plasma membrane (ebBRET, Fig. 2a), HEK293 cells with EGFR-WT, 10 min (fold less potent than hEGF) of over 100.
